Results published in PMC9482650, “Quantitative fragmentomics allow affinity mapping of interactomes” (Nature Communications, 2022).

Assays:
Experiment in all cases: holdup assay
Set-up in all cases: key: below the threshold = too weak to quantify, mostly under pKd 3.1 to 4
Conditions in all cases: plain residues with an end cap or a label only (N-terminal biotin on a linker: ado-ado)
GRIP1_5, Q9Y3R0 = biological target: T1, GRIP1_5, Q9Y3R0
T1 sequence (Q9Y3R0 568-668, limits assumed, looked up): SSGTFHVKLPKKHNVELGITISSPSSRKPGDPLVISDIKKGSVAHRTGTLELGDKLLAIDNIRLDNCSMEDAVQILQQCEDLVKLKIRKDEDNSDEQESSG

MAGI2_4, Q86UL8 = biological target: MAGI2_4, Q86UL8
LAP2, Q96RT1 = biological target: LAP2, Q96RT1
GORASP2, Q9H8Y8 = biological target: GORASP2, Q9H8Y8
LIN7C, Q9NUP9 = biological target: T2, LIN7C, Q9NUP9
T2 sequence (Q9NUP9 88-185, limits assumed, looked up): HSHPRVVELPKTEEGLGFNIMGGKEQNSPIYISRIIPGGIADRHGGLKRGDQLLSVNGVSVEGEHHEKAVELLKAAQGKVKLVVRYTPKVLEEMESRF

GRIP1_3, Q9Y3R0 = biological target: T3, GRIP1_3, Q9Y3R0
T3 sequence (Q9Y3R0 247-346, limits assumed, looked up): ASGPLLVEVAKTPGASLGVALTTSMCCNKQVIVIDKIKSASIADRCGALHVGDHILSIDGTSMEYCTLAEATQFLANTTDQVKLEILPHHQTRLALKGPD

AHNAK1, Q09666 = biological target: AHNAK1, Q09666
DLG4_3, P78352 = biological target: DLG4_3, P78352
DFNB31_3, Q9P202 = biological target: T4, DFNB31_3, Q9P202
T4 sequence (Q9P202 811-907, limits assumed, looked up): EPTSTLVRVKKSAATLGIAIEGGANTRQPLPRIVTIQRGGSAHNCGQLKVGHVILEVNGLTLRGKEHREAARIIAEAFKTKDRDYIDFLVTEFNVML

SYNJ2BP, P57105 = biological target: T5, SYNJ2BP, P57105
T5 sequence (P57105 8-110, limits assumed, looked up): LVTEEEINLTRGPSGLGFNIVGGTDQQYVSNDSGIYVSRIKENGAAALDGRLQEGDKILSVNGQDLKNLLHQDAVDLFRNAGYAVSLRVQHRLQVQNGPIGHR

MAGI2_2, Q86UL8 = biological target: MAGI2_2, Q86UL8
HTRA2, O43464 = biological target: HTRA2, O43464
DLG1_3, Q12959 = biological target: DLG1_3, Q12959
MPP7, Q5T2T1 = biological target: T6, MPP7, Q5T2T1
T6 sequence (Q5T2T1 134-230, limits assumed, looked up): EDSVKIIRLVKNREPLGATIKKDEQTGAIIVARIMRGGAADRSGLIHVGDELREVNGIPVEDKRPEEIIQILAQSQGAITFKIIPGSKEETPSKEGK

TJP3_3, O95049 = biological target: T7, TJP3_3, O95049
T7 sequence (O95049 375-456, limits assumed, looked up): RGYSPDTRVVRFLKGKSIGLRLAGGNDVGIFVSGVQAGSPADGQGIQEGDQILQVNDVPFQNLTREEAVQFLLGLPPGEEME

APBA1_2, Q02410 = biological target: T8, APBA1_2, Q02410
T8 sequence (Q02410 742-832, limits assumed, looked up): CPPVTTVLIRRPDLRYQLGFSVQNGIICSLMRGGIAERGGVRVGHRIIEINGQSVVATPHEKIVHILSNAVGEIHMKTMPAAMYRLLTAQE

TJP2_1, Q9UDY2 = biological target: TJP2_1, Q9UDY2
GRIP2_3, Q9C0E4 = biological target: GRIP2_3, Q9C0E4
GRID2IP_1, A4D2P6 = biological target: GRID2IP_1, A4D2P6
PDZRN4_1, Q6ZMN7 = biological target: PDZRN4_1, Q6ZMN7
FRMPD3, Q5JV73 = biological target: FRMPD3, Q5JV73
GRIP2_7, Q9C0E4 = biological target: GRIP2_7, Q9C0E4
SCRIB_2, Q14160 = biological target: SCRIB_2, Q14160
SNX27, Q96L92 = biological target: SNX27, Q96L92
GRIP1_2, Q9Y3R0 = biological target: T9, GRIP1_2, Q9Y3R0
T9 sequence (Q9Y3R0 145-248, limits assumed, looked up): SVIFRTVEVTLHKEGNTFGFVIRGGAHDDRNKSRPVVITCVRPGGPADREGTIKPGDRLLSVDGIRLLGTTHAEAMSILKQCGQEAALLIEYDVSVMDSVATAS

CARD11, Q9BXL7 = biological target: T10, CARD11, Q9BXL7
T10 sequence (Q9BXL7 662-765, limits assumed, looked up): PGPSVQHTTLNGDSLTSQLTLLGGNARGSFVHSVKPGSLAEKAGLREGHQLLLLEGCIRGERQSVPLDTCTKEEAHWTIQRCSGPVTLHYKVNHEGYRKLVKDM

SCRIB_1, Q14160 = biological target: SCRIB_1, Q14160
SCRIB_1, Q14160, sequence (Q14160 718-814): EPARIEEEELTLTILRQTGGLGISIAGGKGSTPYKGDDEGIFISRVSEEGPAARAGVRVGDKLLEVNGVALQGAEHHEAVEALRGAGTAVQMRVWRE

GRID2IP_1, A4D2P6, sequence (A4D2P6 1-87): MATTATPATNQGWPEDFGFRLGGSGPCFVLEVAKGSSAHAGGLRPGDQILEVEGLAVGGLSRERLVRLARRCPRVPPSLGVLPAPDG
HTRA2, O43464, sequence (O43464 355-458): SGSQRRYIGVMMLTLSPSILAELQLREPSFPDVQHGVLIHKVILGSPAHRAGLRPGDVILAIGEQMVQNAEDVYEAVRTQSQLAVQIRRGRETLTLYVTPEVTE
TJP2_1, Q9UDY2, sequence (Q9UDY2 24-128): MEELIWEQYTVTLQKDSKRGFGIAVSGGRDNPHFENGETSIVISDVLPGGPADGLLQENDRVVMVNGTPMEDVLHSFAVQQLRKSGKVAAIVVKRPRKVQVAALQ
GRIP2_7, Q9C0E4, sequence (Q9C0E4 934-1023): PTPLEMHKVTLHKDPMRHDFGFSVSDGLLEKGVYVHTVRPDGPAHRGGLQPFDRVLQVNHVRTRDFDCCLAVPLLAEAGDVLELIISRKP
SCRIB_2, Q14160, sequence (Q14160 857-960): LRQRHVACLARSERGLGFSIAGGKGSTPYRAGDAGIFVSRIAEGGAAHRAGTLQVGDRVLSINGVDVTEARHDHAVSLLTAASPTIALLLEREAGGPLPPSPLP
FRMPD3, Q5JV73, sequence (Q5JV73 12-100): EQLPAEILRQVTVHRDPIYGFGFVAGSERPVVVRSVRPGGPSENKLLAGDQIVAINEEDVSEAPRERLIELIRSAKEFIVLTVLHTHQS
GRIP2_3, Q9C0E4, sequence (Q9C0E4 238-339): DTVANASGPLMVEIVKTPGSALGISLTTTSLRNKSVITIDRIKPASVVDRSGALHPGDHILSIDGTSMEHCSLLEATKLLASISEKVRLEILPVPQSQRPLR
DLG1_3, Q12959, sequence (Q12959 457-571): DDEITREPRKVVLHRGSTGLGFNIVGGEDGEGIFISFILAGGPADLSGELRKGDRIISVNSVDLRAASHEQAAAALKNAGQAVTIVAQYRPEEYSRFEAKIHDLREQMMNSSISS
MAGI2_2, Q86UL8, sequence (Q86UL8 410-522): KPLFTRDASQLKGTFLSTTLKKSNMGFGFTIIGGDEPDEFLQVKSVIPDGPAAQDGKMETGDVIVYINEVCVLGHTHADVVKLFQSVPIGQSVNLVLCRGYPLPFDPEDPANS
PDZRN4_1, Q6ZMN7, sequence (Q6ZMN7 213-318): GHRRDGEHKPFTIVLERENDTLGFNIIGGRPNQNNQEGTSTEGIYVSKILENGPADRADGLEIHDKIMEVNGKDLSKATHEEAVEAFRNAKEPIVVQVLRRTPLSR
DLG4_3, P78352, sequence (P78352 306-403): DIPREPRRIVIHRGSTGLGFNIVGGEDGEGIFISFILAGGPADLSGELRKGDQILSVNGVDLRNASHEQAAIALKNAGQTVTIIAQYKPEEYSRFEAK
AHNAK1, Q09666, sequence (Q09666 4-100): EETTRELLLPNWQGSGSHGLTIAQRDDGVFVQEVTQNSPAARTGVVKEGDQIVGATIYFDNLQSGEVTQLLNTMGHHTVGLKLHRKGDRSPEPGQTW
MAGI2_4, Q86UL8, sequence (Q86UL8 772-865): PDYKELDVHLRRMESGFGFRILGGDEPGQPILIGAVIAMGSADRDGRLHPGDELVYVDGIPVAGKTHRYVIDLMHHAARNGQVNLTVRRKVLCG
LAP2, Q96RT1, sequence (Q96RT1 other isoform, or with tags, fused parts or gaps): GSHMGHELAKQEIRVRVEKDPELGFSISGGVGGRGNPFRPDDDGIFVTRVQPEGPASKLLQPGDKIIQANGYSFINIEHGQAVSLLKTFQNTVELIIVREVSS

B1: SDC4, P31431 (peptide)
chain: KKAPTNEFYA
pKd (GRIP1_5, Q9Y3R0): below the threshold
pKd (MAGI2_4, Q86UL8): below the threshold
pKd (LAP2, Q96RT1): below the threshold
pKd (GORASP2, Q9H8Y8): below the threshold
pKd (LIN7C, Q9NUP9): 3.78
pKd (GRIP1_3, Q9Y3R0): below the threshold
pKd (AHNAK1, Q09666): below the threshold
pKd (DLG4_3, P78352): below the threshold
pKd (DFNB31_3, Q9P202): 3.85
pKd (SYNJ2BP, P57105): below the threshold
pKd (MAGI2_2, Q86UL8): below the threshold
pKd (HTRA2, O43464): below the threshold
pKd (DLG1_3, Q12959): below the threshold
pKd (MPP7, Q5T2T1): below the threshold
pKd (TJP3_3, O95049): below the threshold
pKd (APBA1_2, Q02410): below the threshold
pKd (TJP2_1, Q9UDY2): below the threshold
pKd (GRIP2_3, Q9C0E4): below the threshold
pKd (GRID2IP_1, A4D2P6): below the threshold
pKd (PDZRN4_1, Q6ZMN7): below the threshold
pKd (FRMPD3, Q5JV73): 3.84
pKd (GRIP2_7, Q9C0E4): below the threshold
pKd (SCRIB_2, Q14160): below the threshold
pKd (SNX27, Q96L92): below the threshold
pKd (GRIP1_2, Q9Y3R0): below the threshold
pKd (CARD11, Q9BXL7): below the threshold
pKd (SCRIB_1, Q14160): below the threshold

B2: SLC45A4, Q5BKX6 (peptide)
chain: QGPVETESVV
pKd (GRIP1_5, Q9Y3R0): below the threshold
pKd (MAGI2_4, Q86UL8): 3.76
pKd (LAP2, Q96RT1): 3.66
pKd (GORASP2, Q9H8Y8): 3.53
pKd (LIN7C, Q9NUP9): below the threshold
pKd (GRIP1_3, Q9Y3R0): below the threshold
pKd (AHNAK1, Q09666): below the threshold
pKd (DLG4_3, P78352): below the threshold
pKd (DFNB31_3, Q9P202): below the threshold
pKd (SYNJ2BP, P57105): 4.49
pKd (MAGI2_2, Q86UL8): 3.78
pKd (HTRA2, O43464): below the threshold
pKd (DLG1_3, Q12959): below the threshold
pKd (MPP7, Q5T2T1): below the threshold
pKd (TJP3_3, O95049): 3.59
pKd (APBA1_2, Q02410): 3.79
pKd (TJP2_1, Q9UDY2): below the threshold
pKd (GRIP2_3, Q9C0E4): below the threshold
pKd (GRID2IP_1, A4D2P6): below the threshold
pKd (PDZRN4_1, Q6ZMN7): 3.64
pKd (FRMPD3, Q5JV73): 3.5
pKd (GRIP2_7, Q9C0E4): below the threshold
pKd (SCRIB_2, Q14160): 3.67
pKd (SNX27, Q96L92): 5.73
pKd (GRIP1_2, Q9Y3R0): below the threshold
pKd (CARD11, Q9BXL7): below the threshold
pKd (SCRIB_1, Q14160): 3.72

B3: SAPCD1, Q5SSQ6 (peptide)
chain: TKGPRGPTRV
pKd (GRIP1_5, Q9Y3R0): below the threshold
pKd (MAGI2_4, Q86UL8): below the threshold
pKd (LAP2, Q96RT1): 3.72
pKd (GORASP2, Q9H8Y8): 3.96
pKd (LIN7C, Q9NUP9): below the threshold
pKd (GRIP1_3, Q9Y3R0): below the threshold
pKd (AHNAK1, Q09666): below the threshold
pKd (DLG4_3, P78352): 4.59
pKd (DFNB31_3, Q9P202): below the threshold
pKd (SYNJ2BP, P57105): 4.25
pKd (MAGI2_2, Q86UL8): 5.42
pKd (HTRA2, O43464): below the threshold
pKd (DLG1_3, Q12959): 4.31
pKd (MPP7, Q5T2T1): below the threshold
pKd (TJP3_3, O95049): below the threshold
pKd (APBA1_2, Q02410): 4.47
pKd (TJP2_1, Q9UDY2): 3.9
pKd (GRIP2_3, Q9C0E4): below the threshold
pKd (GRID2IP_1, A4D2P6): below the threshold
pKd (PDZRN4_1, Q6ZMN7): 3.67
pKd (FRMPD3, Q5JV73): below the threshold
pKd (GRIP2_7, Q9C0E4): below the threshold
pKd (SCRIB_2, Q14160): below the threshold
pKd (SNX27, Q96L92): 4
pKd (GRIP1_2, Q9Y3R0): below the threshold
pKd (CARD11, Q9BXL7): below the threshold
pKd (SCRIB_1, Q14160): 3.7

B4: CLDN2, P57739 (peptide)
chain: FNSYSLTGYV
pKd (GRIP1_5, Q9Y3R0): below the threshold
pKd (MAGI2_4, Q86UL8): 4.24
pKd (LAP2, Q96RT1): below the threshold
pKd (GORASP2, Q9H8Y8): 4.36
pKd (LIN7C, Q9NUP9): below the threshold
pKd (GRIP1_3, Q9Y3R0): below the threshold
pKd (AHNAK1, Q09666): below the threshold
pKd (DLG4_3, P78352): below the threshold
pKd (DFNB31_3, Q9P202): below the threshold
pKd (SYNJ2BP, P57105): 3.88
pKd (MAGI2_2, Q86UL8): 3.67
pKd (HTRA2, O43464): 4.48
pKd (DLG1_3, Q12959): below the threshold
pKd (MPP7, Q5T2T1): below the threshold
pKd (TJP3_3, O95049): 4.31
pKd (APBA1_2, Q02410): 4
pKd (TJP2_1, Q9UDY2): 4.84
pKd (GRIP2_3, Q9C0E4): below the threshold
pKd (GRID2IP_1, A4D2P6): below the threshold
pKd (PDZRN4_1, Q6ZMN7): 3.49
pKd (FRMPD3, Q5JV73): below the threshold
pKd (GRIP2_7, Q9C0E4): below the threshold
pKd (SCRIB_2, Q14160): below the threshold
pKd (SNX27, Q96L92): 4.06
pKd (GRIP1_2, Q9Y3R0): below the threshold
pKd (CARD11, Q9BXL7): below the threshold
pKd (SCRIB_1, Q14160): below the threshold
